The target of this assay is T1, human Dsg3 in human skin or mucosa (human, UniProt P32926 50-999).
T1 construct: whole, on cells; also called human tissues
T1 sequence (looked up): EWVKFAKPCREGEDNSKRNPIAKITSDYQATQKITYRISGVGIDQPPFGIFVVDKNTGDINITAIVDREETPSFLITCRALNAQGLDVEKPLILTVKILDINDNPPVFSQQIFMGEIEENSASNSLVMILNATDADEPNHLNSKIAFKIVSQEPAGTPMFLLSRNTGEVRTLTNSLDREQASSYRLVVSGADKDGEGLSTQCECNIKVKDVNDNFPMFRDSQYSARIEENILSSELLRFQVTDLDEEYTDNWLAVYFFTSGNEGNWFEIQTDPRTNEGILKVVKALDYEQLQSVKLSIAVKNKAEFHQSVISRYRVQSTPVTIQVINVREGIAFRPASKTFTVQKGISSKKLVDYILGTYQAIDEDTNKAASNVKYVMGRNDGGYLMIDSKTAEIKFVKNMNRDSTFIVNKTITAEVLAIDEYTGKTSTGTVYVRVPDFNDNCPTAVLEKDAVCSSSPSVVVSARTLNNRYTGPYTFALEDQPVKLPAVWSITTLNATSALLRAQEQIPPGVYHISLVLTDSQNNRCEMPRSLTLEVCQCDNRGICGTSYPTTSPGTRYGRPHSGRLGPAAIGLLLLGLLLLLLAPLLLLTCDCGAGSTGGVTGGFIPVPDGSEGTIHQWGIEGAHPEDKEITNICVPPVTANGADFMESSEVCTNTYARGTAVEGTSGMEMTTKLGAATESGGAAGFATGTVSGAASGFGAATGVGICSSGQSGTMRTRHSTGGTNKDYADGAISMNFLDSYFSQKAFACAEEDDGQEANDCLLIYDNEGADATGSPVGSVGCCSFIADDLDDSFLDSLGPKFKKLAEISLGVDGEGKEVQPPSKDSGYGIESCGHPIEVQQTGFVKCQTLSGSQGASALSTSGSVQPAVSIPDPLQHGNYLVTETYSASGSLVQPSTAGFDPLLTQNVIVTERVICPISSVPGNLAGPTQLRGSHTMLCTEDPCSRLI
The assay is described as follows: indirect immunofluorescence on human skin sections. As to the method: A-5 (Indirect Immunofluorescence) C57B1/6J mouse hard palate, liver and human skin were embedded with OCT compound (SAKURA, USA), then froze and sectioned into 5 μm thickness, and constructed a substrate. After each of hybridoma culture supernatants were reacted for 1 hour at room temperature, they were washed with PBS (3 times), and reacted with ×100 diluted FITC labeled goat anti-mouse IgG (DAKO A/S, Glostrup, Denmark) for 1 hour at room temperature, they were washed with PBS (3 times), and microscopic examination was conducted using a fluorescence microscope.

B1: anti-Dsg3 monoclonal antibody AK23 (antibody, mouse IgG1, V domains shown)
VH: QVQLQQSGTELVKPGASVKLSCKSSGYTFTSYWINWVKQRPGQGLEWIGNINPSNGGINYNEKFKSKATLTVDKSSSTAYMQLKSLTSEDSAVYYCARGGYDGYPWGQGTTVTVS
VL: DIQMTQSPKFLLVSAGDRVTITCKASQSVSYDVAWYQQKPGQSPKLLISYASNRYTGVPDRFTGSGYGSDFTFTISTVQTEDLAVYFCQQDYSSPWTFGGGTKLELKR
notes: Mouse IgG1 kappa hybridoma antibody
Turning to B1, the binding result is recorded as “binds”.

These data come from patent US20050025760A1 (KEIO UNIVERSITY, published 2005).
